Data from patent US20230036041A1, “SORTILIN BINDING CONJUGATE COMPOUNDS, COMPOSITIONS AND USES THEREOF FOR TREATING CANCER” (THERATECHNOLOGIES INC., priority 2019, published 2023).
Non-standard residues stand in square brackets, D forms with d. No end group written: not given here. Nle = CCCC[C@H](N)C(=O)O

Molecular target: T1, sortilin (Homo sapiens, UniProt Q99523)
T1 construct: endogenous in cells
T1 sequence (Q99523 78-831): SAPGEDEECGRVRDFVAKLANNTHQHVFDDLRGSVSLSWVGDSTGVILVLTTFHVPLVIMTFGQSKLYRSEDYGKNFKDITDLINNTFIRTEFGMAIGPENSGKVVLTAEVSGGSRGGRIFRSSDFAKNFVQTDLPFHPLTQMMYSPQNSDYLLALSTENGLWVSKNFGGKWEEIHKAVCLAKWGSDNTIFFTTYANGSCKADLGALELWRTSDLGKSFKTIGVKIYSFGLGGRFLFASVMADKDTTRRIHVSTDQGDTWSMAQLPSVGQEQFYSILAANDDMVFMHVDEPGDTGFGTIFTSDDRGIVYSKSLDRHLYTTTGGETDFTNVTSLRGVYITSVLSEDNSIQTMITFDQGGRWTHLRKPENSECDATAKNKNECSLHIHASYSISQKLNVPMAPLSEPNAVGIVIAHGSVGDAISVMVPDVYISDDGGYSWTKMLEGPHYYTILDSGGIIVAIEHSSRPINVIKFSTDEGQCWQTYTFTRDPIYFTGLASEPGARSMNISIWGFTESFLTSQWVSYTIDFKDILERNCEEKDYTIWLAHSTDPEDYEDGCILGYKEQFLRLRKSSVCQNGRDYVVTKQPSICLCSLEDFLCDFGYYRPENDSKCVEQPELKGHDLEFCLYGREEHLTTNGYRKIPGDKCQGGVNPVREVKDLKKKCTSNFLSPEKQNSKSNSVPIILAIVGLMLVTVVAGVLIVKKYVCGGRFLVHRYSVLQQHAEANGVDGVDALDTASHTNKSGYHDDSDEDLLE
Assay: uptake of the peptide upon sortilin siRNA
Format: cell-based
Conditions: FIG. 6
Description: In vitro testing of the TH19P01 peptide and the TH1902 conjugate compound was conducted.

- uptake of the peptide: inhibited upon sortilin siRNA
Substance: Acetyl-GVRAKAGVRN(Nle)FKSESY (Ac-GVRAKAGVRN[Nle]FKSESY) [TH19P01]
